From patent publication US20190376133 come the findings set out here.

The test system of this data set is T1, Pol6-67-X2 (Clostridium phage phiCPV4).
T1 sequence: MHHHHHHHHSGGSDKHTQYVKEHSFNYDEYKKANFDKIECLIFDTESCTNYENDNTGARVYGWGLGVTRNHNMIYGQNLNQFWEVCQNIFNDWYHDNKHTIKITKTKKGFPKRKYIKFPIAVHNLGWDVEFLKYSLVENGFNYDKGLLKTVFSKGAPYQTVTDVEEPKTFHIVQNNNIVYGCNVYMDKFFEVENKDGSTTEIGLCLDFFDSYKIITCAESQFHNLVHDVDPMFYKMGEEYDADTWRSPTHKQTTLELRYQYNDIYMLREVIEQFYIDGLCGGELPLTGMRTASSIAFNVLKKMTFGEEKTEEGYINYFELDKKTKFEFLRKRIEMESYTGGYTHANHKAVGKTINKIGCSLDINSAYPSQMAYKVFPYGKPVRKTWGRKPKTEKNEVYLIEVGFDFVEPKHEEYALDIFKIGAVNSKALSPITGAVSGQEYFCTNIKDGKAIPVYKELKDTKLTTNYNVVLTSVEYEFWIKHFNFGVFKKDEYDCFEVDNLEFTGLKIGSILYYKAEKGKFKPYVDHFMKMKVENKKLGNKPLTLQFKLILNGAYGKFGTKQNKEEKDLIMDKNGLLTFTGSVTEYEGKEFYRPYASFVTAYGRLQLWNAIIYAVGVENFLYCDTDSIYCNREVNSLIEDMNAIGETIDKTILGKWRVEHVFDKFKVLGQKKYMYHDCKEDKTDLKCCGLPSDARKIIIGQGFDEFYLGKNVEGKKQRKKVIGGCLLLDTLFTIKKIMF
The settings on record: 5'-desthiobiotin-TEG; iSpC3 spacer between SEQ 15 and SEQ 22; 8x polymerase (26% at 1x); bound at 40 C with 1.2 uM polyphosphate nucleotides; extension 5 min at 30 C with 5 mM MgCl2, 10 uM nucleotides; % bound correlates ….

For the sequence “ACTGCTGATCTGTTCCTGAATCGACTACTACTATCATCATACCACCTCAGCTGCACGTTAAGTGCAGCTGAGGTGG [Fluorescent Hairpin DNA template]”, the activity is 66 % extension.
